Test results published in the supplement of paper PMC11246515.
± gives the standard deviation of the averaged measurements.

Test: total protein half-life in vivo (active degradation + dilution); higher = more stable protein
[1] = E. coli NCM3722 delta-clpP delta-lon delta-hslV, growth: N-lim chemostat, doubling time 6 h
[2] = E. coli NCM3722 delta-clpP, growth: N-lim chemostat, doubling time 6 h
[3] = E. coli NCM3722 delta-hslV, growth: N-lim chemostat, doubling time 6 h
[4] = E. coli NCM3722 delta-lon, growth: N-lim chemostat, doubling time 6 h
[5] = E. coli NCM3722 delta-smpB, growth: N-lim chemostat, doubling time 6 h
[6] = wild type E. coli NCM3722, growth: C-lim chemostat, doubling time 3 h
[7] = wild type E. coli NCM3722, growth: C-lim chemostat, doubling time 6 h
[8] = wild type E. coli NCM3722, growth: C-lim chemostat, doubling time 12 h
[9] = wild type E. coli NCM3722, growth: N-lim chemostat, doubling time 6 h
[10] = wild type E. coli NCM3722, growth: N-lim chemostat, doubling time 12 h
[11] = wild type E. coli NCM3722, growth: P-lim chemostat, doubling time 6 h
[12] = wild type E. coli NCM3722, growth: P-lim chemostat, doubling time 12 h

Sequence | total protein half-life in vivo [1] | total protein half-life in vivo [2] | total protein half-life in vivo [3] | total protein half-life in vivo [4] | total protein half-life in vivo [5] | total protein half-life in vivo [6] | total protein half-life in vivo [7] | total protein half-life in vivo [8] | total protein half-life in vivo [9] | total protein half-life in vivo [10] | total protein half-life in vivo [11] | total protein half-life in vivo [12]
MSGFYHKHFLKLLDFTPAELNSLLQLAAKLKADKKSGKEEAKLTGKNIALIFEKDSTRTRCSFEVAAYDQGARVTYLGPSGSQIGHKESIKDTARVLGRMYDGIQYRGYGQEIVETLAEYASVPVWNGLTNEFHPTQLLADLLTMQEHLPGKAFNEMTLVYAGDARNNMGNSMLEAAALTGLDLRLVAPQACWPEAALVTECRALAQQNGGNITLTEDVAKGVEGADFIYTDVWVSMGEAKEKWAERIALLREYQVNSKMMQLTGNPEVKFLHCLPAFHDDQTTLGKKMAEEFGLHGGMEVTDEVFESAASIVFDQAENRMHTIKAVMVATLSK | 3.57 ± 0.61 h | 2.14 ± 0.064 h | 2.09 ± 0.27 h | 2.62 ± 0.044 h | 2.52 ± 0.042 h | 2.9 ± 0.032 h | 4.71 ± 0.28 h | 7.42 ± 1.9 h | 2.52 ± 0.23 h | 3.48 ± 0.63 h | 5.11 ± 0.34 h | 8.84 ± 0.35 h
MSNKPFIYQAPFPMGKDNTEYYLLTSDYVSVADFDGETILKVEPEALTLLAQQAFHDASFMLRPAHQKQVAAILHDPEASENDKYVALQFLRNSEIAAKGVLPTCQDTGTAIIVGKKGQRVWTGGGDEETLSKGVYNTYIEDNLRYSQNAALDMYKEVNTGTNLPAQIDLYAVDGDEYKFLCVAKGGGSANKTYLYQETKALLTPGKLKNFLVEKMRTLGTAACPPYHIAFVIGGTSAETNLKTVKLASAHYYDELPTEGNEHGQAFRDVQLEQELLEEAQKLGLGAQFGGKYFAHDIRVIRLPRHGASCPVGMGVSCSADRNIKAKINREGIWIEKLEHNPGQYIPQELRQAGEGEAVKVDLNRPMKEILAQLSQYPVSTRLSLTGTIIVGRDIAHAKLKELIDAGKELPQYIKDHPIYYAGPAKTPAGYPSGSLGPTTAGRMDSYVDLLQSHGGSMIMLAKGNRSQQVTDACHKHGGFYLGSIGGPAAVLAQQSIKHLECVAYPELGMEAIWKIEVEDFPAFILVDDKGNDFFQQIVNKQCANCTK | 5.77 ± 0.79 h |  | 4.08 ± 0.13 h | 4.19 ± 0.42 h | 3.86 ± 0.25 h | 3.08 ± 0.042 h | 5.65 ± 0.69 h | 9.34 ± 1.8 h | 4.28 ± 0.48 h | 5.98 ± 0.31 h | 5.73 h | 11.2 ± 0.73 h
MSSSRPVFRSRWLPYLLVAPQLIITVIFFIWPAGEALWYSLQSVDPFGFSSQFVGLDNFVTLFHDSYYLDSFWTTIKFSTFVTVSGLLVSLFFAALVEYIVRGSRFYQTLMLLPYAVAPAVAAVLWIFLFNPGRGLITHFLAEFGYDWNHAQNSGQAMFLVVFASVWKQISYNFLFFYAALQSIPRSLIEAAAIDGAGPIRRFFKIALPLIAPVSFFLLVVNLVYAFFDTFPVIDAATSGGPVQATTTLIYKIYREGFTGLDLASSAAQSVVLMFLVIVLTVVQFRYVESKVRYQ |  |  |  |  |  |  |  |  |  |  | 5.34 h | 11.9 ± 0.84 h
MHNQAPIQRRKSTRIYVGNVPIGDGAPIAVQSMTNTRTTDVEATVNQIKALERVGADIVRVSVPTMDAAEAFKLIKQQVNVPLVADIHFDYRIALKVAEYGVDCLRINPGNIGNEERIRMVVDCARDKNIPIRIGVNAGSLEKDLQEKYGEPTPQALLESAMRHVDHLDRLNFDQFKVSVKASDVFLAVESYRLLAKQIDQPLHLGITEAGGARSGAVKSAIGLGLLLSEGIGDTLRVSLAADPVEEIKVGFDILKSLRIRSRGINFIACPTCSRQEFDVIGTVNALEQRLEDIITPMDVSIIGCVVNGPGEALVSTLGVTGGNKKSGLYEDGVRKDRLDNNDMIDQLEARIRAKASQLDEARRIDVQQVEK | 4.85 ± 0.2 h | 2.41 ± 0.11 h | 3.23 ± 0.18 h | 3.18 ± 0.078 h | 2.88 ± 0.19 h | 2.61 ± 0.25 h | 4.69 ± 0.24 h | 7.78 ± 0.65 h | 3.05 ± 0.092 h | 4.29 ± 0.3 h | 4.01 ± 0.28 h | 7.02 ± 0.51 h
MLVYWLDIVGTAVFAISGVLLAGKLRMDPFGVLVLGVVTAVGGGTIRDMALDHGPVFWVKDPTDLVVAMVTSMLTIVLVRQPRRLPKWMLPVLDAVGLAVFVGIGVNKAFNAEAGPLIAVCMGVITGVGGGIIRDVLAREIPMILRTEIYATACIIGGIVHATAYYTFSVPLETASMMGMVVTLLIRLAAIRWHLKLPTFALDENGR [P0AFP0] | 6.04 h | 5.6 h |  |  |  | 2.95 h |  | 9.77 h |  |  |  | 
MSETKNELEDLLEKAATEPAHRPAFFRTLLESTVWVPGTAAQGEAVVEDSALDLQHWEKEDGTSVIPFFTSLEALQQAVEDEQAFVVMPVRTLFEMTLGETLFLNAKLPTGKEFMPREISLLIGEEGNPLSSQEILEGGESLILSEVAEPPAQMIDSLTTLFKTIKPVKRAFICSIKENEEAQPNLLIGIEADGDIEEIIQATGSVATDTLPGDEPIDICQVKKGEKGISHFITEHIAPFYERRWGGFLRDFKQNRII [P0AFZ1] | 3.64 h | 3.49 ± 0.42 h | 2.73 h | 3.96 ± 0.78 h | 2.39 ± 0.091 h | 2.44 h | 4.53 ± 0.38 h | 6.76 ± 0.27 h | 2.81 h | 4.38 h | 3.65 h | 7.61 h
